Test results from patent US20220003777.

What was measured:
[1] = biological target: T1, CD43, recombinant, P16150
T1 chain: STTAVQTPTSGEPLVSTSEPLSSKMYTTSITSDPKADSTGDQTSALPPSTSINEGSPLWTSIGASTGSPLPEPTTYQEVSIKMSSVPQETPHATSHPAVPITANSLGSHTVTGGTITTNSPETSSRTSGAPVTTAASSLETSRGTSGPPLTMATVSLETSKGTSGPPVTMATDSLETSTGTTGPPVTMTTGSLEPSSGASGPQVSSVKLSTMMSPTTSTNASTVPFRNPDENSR

[2] = biological target: T2, CD45, recombinant, P08575
T2 chain: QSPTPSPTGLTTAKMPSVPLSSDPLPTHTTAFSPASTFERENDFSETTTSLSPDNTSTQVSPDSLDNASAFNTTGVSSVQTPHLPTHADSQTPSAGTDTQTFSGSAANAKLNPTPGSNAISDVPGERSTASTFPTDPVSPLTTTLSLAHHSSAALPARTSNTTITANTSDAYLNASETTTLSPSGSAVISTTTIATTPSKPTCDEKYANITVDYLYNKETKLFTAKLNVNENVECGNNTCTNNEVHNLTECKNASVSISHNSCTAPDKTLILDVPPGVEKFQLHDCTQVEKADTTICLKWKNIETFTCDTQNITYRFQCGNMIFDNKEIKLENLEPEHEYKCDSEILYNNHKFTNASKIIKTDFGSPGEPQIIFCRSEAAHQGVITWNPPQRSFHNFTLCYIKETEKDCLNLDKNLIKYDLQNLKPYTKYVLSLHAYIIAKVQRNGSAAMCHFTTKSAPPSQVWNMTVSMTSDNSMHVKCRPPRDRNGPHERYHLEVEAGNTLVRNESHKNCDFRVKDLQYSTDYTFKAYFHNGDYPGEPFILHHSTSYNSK

[3] = biological target: T3, PSGL-1, recombinant, Q14242
T3 chain: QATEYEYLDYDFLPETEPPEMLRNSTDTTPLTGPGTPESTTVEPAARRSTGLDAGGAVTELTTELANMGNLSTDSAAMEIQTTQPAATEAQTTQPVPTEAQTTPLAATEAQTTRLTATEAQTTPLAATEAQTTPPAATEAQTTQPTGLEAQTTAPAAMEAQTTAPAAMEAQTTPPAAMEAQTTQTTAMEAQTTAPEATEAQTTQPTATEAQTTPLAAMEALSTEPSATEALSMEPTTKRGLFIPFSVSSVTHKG

[4] = biological target: T4, recombinant human MUC16, Q8WXI7
T4 chain: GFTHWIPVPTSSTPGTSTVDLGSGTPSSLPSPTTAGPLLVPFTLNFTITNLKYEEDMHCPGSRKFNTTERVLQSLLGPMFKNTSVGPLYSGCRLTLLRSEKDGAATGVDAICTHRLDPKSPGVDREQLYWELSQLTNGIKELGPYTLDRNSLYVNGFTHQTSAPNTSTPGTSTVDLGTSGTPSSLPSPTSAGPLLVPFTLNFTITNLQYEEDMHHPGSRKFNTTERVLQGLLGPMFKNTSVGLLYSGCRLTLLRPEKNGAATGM

[5] = biological target: T5, podocalyxin, recombinant, O00592
T5 chain: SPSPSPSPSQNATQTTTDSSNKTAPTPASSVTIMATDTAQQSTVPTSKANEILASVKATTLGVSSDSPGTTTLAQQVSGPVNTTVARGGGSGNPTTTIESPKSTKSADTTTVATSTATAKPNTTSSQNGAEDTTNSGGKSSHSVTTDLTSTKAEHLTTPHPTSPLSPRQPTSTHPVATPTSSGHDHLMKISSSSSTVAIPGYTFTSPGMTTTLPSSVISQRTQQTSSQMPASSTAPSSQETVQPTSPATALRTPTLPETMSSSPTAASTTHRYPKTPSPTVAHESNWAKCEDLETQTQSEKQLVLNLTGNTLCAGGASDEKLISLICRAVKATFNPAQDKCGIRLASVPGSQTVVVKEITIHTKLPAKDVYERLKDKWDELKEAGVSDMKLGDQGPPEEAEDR

[6] = biological target: T6, C1 esterase inhibitor, human plasma-derived, P05155
T6 chain: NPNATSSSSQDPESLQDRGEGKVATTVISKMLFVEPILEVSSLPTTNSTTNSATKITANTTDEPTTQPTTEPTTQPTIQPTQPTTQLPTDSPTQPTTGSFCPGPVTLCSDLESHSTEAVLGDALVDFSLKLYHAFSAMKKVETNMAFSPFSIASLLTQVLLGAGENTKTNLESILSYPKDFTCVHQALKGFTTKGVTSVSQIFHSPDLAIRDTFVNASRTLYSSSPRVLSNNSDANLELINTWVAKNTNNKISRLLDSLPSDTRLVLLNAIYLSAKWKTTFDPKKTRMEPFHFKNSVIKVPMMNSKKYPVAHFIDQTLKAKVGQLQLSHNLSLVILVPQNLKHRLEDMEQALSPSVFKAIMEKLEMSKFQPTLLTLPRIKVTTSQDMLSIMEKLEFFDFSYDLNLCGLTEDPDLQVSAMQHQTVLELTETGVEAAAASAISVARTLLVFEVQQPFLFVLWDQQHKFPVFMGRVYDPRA

[7] = biological target: T7, Syncam-1, recombinant, Q9BY67
T7 chain: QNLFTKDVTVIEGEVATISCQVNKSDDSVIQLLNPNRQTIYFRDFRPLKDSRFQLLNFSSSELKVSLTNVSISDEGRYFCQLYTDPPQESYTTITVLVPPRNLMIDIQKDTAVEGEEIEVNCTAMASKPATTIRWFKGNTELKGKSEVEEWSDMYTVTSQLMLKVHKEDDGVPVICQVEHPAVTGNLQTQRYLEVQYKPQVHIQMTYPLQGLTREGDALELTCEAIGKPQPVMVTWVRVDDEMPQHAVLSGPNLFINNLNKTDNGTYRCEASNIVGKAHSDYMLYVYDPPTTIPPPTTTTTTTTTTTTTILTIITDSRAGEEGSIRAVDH

[8] = biological target: bovine serum albumin, P02769
Chain of bovine serum albumin, P02769 (P02769 25-607): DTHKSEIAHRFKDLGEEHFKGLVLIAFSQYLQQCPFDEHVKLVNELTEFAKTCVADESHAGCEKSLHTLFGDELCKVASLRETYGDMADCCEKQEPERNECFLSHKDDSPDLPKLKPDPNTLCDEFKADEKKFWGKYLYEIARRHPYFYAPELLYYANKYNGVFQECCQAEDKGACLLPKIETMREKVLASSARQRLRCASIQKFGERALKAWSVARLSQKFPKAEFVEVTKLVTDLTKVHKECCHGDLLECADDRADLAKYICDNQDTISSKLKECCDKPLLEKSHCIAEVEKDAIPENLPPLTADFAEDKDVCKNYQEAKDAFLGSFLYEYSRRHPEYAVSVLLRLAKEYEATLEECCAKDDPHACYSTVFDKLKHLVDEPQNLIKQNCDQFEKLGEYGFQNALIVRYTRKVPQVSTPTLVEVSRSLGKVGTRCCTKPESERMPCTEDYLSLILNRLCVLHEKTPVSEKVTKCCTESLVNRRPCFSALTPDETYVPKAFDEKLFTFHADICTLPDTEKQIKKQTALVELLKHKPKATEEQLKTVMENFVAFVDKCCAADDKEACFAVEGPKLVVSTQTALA

[9] = biological target: T8, synthetic glycopeptide RPPIT*QSSL
T8 chain: RPPITQSSL

[10] = biological target: MUC16, native human (cell lines, cell lysates and supernatants, cancer patient ascites), Q8WXI7
fetuin, P12763 = biological target: T9, fetuin, P12763
T9 chain: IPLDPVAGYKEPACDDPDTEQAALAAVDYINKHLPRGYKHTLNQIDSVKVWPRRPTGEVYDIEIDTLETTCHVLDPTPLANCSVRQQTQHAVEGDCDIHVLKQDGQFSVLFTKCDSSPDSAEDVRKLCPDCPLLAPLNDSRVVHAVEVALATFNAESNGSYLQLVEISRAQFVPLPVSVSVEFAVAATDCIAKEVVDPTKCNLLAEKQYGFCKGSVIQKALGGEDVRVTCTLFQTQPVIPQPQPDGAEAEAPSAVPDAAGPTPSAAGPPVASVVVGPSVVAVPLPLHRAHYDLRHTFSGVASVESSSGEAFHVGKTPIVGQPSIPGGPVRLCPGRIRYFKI

B1: Secreted Protease of C1 Esterase Inhibitor (StcE), recombinant N-terminal His-tagged (protein)
chain: ADNNSAIYFNTSQPINDLQGSLAAEVKFAQSQILPAHPKEGDSQPHLTSLRKSLLLVRPVKADDKTPVQVEARDDNNKILGTLTLYPPSSLPDTIYHLDGVPEGGIDFTPHNGTKKIINTVAEVNKLSDASGSSIHSHLTNNALVEIHTANGRWVRDIYLPQGPDLEGKMVRFVSSAGYSSTVFYGDRKVTLSVGNTLLFKYVNGQWFRSGELENNRITYAQHIWSAELPAHWIVPGLNLVIKQGNLSGRLNDIKIGAPGELLLHTIDIGMLTTPRDRFDFAKDKEAHREYFQTIPVSRMIVNNYAPLHLKEVMLPTGELLTDMDPGNGGWHSGTMRQRIGKELVSHGIDNANYGLNSTAGLGENSHPYVVAQLAAHNSRGNYANGIQVHGGSGGGGIVTLDSTLGNEFSHEVGHNYGLGHYVDGFKGSVHRSAENNNSTWGWDGDKKRFIPNFYPSQTNEKSCLNNQCQEPFDGHKFGFDAMAGGSPFSAANRFTMYTPNSSAIIQRFFENKAVFDSRSSTGFSKWNADTQEMEPYEHTIDRAEQITASVNELSESKMAELMAEYAVVKVHMWNGNWTRNIYIPTASADNRGSILTINHEAGYNSYLFINGDEKVVSQGYKKSFVSDGQFWKERDVVDTREARKPEQFGVPVTTLVGYYDPEGTLSSYIYPAMYGAYGFTYSDDSQNLSDNDCQLQVDTKEGQLRFRLANHRANNTVMNKFHINVPTESQPTQATLVCNNKILDTKSLTPAPEGLTYTVNGQALPAKENEGCIVSVNSGKRYCLPVGQRSGYSLPDWIVGQEVYVDSGAKAKVLLSDWDNLSYNRIGEFVGNVNPADMKKVKAWNGQYLDFSKPRSMRVVYK
[1]
  cleavage of substrate (gel shift): cleaved all tested mucin-like glycoproteins
[2]
  cleavage of substrate (gel shift): cleaved all tested mucin-like glycoproteins
[3]
  cleavage of substrate (gel shift): cleaved all tested mucin-like glycoproteins
[4]
  cleavage of substrate (gel shift): cleaved all tested mucin-like glycoproteins
[5]
  cleavage of substrate (gel shift): cleaved all tested mucin-like glycoproteins
[6]
  cleavage of substrate (SDS-PAGE, glycoprotein stain): active against C11NH
[7]
  cleavage of substrate (gel shift): cleaved all tested mucin-like glycoproteins
[8]
  cleavage of substrate (gel shift): did not cleave
[9]
  cleavage of synthetic glycopeptide (MS): StcE cleaved a synthetic peptide containing a single GalNAc
[10]
  cleavage in ascites fluid (anti-MUC16 Western blot): dose-dependent decrease in apparent molecular weight
fetuin, P12763
  cleavage of substrate (gel shift): did not cleave
